From US20070253950A1

Key:
[1] = target: human RAGE-strep tag fusion protein (human) (UniProt Q15109); test: BIACORE capture assay: hRAGE-SA over antibody captured on anti-human Fc; 1:1 Langmuir global fit; FC2
[2] = target: human RAGE-strep tag fusion protein (human) (UniProt Q15109); test: BIACORE capture assay: hRAGE-SA over antibody captured on anti-human Fc; 1:1 Langmuir global fit; FC3
[3] = target: human RAGE-strep tag fusion protein (human) (UniProt Q15109); test: BIACORE capture assay: hRAGE-SA over antibody captured on anti-human Fc; 1:1 Langmuir global fit; average of FC2-FC4
[4] = target: murine RAGE-strep tag fusion protein (murine) (UniProt Q62151); test: BIACORE capture assay: mRAGE-SA (SA-Mu RAGE) over antibody captured on anti-human Fc; 1:1 Langmuir global fit; average of FC2-FC4
[5] = target: human RAGE-strep tag fusion protein (human) (UniProt Q15109); test: BIACORE capture assay: hRAGE-SA over antibody captured on anti-human Fc; steady state affinity; average of FC2-FC4
[6] = target: murine RAGE-strep tag fusion protein (murine) (UniProt Q62151); test: BIACORE capture assay: mRAGE-SA (SA-Mu RAGE) over antibody captured on anti-human Fc; 1:1 Langmuir global fit; FC2
[7] = target: human RAGE-strep tag fusion protein (human) (UniProt Q15109); test: BIACORE capture assay: hRAGE-SA over antibody captured on anti-human Fc; steady state affinity; FC2
[8] = target: human RAGE-strep tag fusion protein (human) (UniProt Q15109); test: BIACORE capture assay: hRAGE-SA over antibody captured on anti-human Fc; steady state affinity; FC3
[9] = target: human RAGE-strep tag fusion protein (human) (UniProt Q15109); test: BIACORE capture assay: hRAGE-SA over antibody captured on anti-human Fc; 1:1 Langmuir global fit; FC4
[10] = target: murine RAGE-strep tag fusion protein (murine) (UniProt Q62151); test: BIACORE capture assay: mRAGE-SA (SA-Mu RAGE) over antibody captured on anti-human Fc; 1:1 Langmuir global fit; FC3
[11] = target: human RAGE-strep tag fusion protein (human) (UniProt Q15109); test: BIACORE capture assay: hRAGE-SA over antibody captured on anti-human Fc; steady state affinity; FC4
[12] = target: murine RAGE-strep tag fusion protein (murine) (UniProt Q62151); test: BIACORE capture assay: mRAGE-SA (SA-Mu RAGE) over antibody captured on anti-human Fc; 1:1 Langmuir global fit; FC4

Sequence of human RAGE-strep tag fusion protein (human) (Q15109 other isoform, or with tags, fused parts or gaps): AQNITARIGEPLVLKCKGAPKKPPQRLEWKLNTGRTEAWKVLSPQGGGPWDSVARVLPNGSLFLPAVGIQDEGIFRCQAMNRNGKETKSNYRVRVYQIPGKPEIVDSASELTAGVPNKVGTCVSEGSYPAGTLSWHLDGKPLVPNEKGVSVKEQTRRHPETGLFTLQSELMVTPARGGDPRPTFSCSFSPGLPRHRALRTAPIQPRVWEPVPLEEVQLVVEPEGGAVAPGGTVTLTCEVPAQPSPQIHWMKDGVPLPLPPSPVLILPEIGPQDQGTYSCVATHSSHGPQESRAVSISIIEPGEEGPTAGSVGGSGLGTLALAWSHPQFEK
Sequence of murine RAGE-strep tag fusion protein (murine) (Q62151 other isoform, or with tags, fused parts or gaps): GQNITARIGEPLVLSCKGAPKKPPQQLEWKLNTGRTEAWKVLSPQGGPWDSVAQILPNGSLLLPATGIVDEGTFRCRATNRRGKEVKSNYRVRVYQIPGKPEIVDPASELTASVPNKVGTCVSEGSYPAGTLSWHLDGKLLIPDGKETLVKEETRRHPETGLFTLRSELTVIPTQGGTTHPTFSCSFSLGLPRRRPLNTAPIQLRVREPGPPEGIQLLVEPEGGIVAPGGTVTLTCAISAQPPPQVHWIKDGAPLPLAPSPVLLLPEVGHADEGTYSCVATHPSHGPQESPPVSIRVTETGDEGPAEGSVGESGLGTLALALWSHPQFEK

Kd [1] [nM]	koff [1] [s⁻¹]	kon [1] [M⁻¹ s⁻¹]	Kd [2] [nM]	koff [2] [s⁻¹]	kon [2] [M⁻¹ s⁻¹]	Kd [3] [nM]	koff [3] [s⁻¹]	kon [3] [M⁻¹ s⁻¹]	Kd [4] [nM]	koff [4] [s⁻¹]	kon [4] [M⁻¹ s⁻¹]	Kd [5] [nM]	Kd [6] [nM]	koff [6] [s⁻¹]	kon [6] [M⁻¹ s⁻¹]	Kd [7] [nM]	Kd [8] [nM]	Kd [9] [nM]	koff [9] [s⁻¹]	Binder	further results
31.8	0.00972	306000	18.2	0.0569	3.13e+06	23.4	0.0457	2.3e+06	3	0.0077	2.6e+06	25	3	0.0078	2.6e+06	25	24	20.3	0.0704	XT-M4-V10 (antibody, from a related filing, V domains shown) VH: EVQLVESGGGLVQPGGSLRLSCAASGFTFNNYWMTWVRQAPGKGLEWVASIDNSGDNTYYPDSVKDRFTISRDNAKNSLYLQMNSLRAEDTAVYYCARGGDITTGFDYWGQGTLVTVSS VL: DIQMTQSPSSLSASVGDRVTITCRASQDVGIYVNWFQQKPGKAPKRLIYRATNLADGVPSRFSGSGSGTDFTLTISSLQPEDFATYYCLEFDEHPLTFGGGTKVEIK	kon [9]: 3.47e+06 M⁻¹ s⁻¹; Kd [10]: 2.9 nM; koff [10]: 0.0076 s⁻¹; kon [10]: 2.6e+06 M⁻¹ s⁻¹; Kd [11]: 26 nM; Kd [12]: 3 nM; koff [12]: 0.0078 s⁻¹; kon [12]: 2.6e+06 M⁻¹ s⁻¹
13	0.033	2.5e+06	12	0.039	3.4e+06	12.5	0.0374	3.01e+06	2	0.0042	2.1e+06	16	2	0.0043	2.2e+06	16	15	13	0.041	XT-M4-V11 (antibody, from a related filing, V domains shown) VH: EVQLVESGGGLVQPGGSLRLSCAASGFTFNNYWMTWVRQAPGKGLEWVASIDNSGDNTYYPDSVKDRFTISRDNAKNSLYLQMNSLRAEDTAVYYCARGGDITTGFDYWGQGTLVTVSS VL: DIQMTQSPSSLSASVGDRVTITCRASQDVGIYVNWFQQKPGKAPRRLIYRATNLADGVPSRFSGSRSGTDFTLTISSLQPEDFATYYCLEFDEHPLTFGGGTKVEIK	kon [9]: 3.2e+06 M⁻¹ s⁻¹; Kd [10]: 2 nM; koff [10]: 0.0042 s⁻¹; kon [10]: 2.1e+06 M⁻¹ s⁻¹; Kd [11]: 17 nM; Kd [12]: 2 nM; koff [12]: 0.0041 s⁻¹; kon [12]: 2e+06 M⁻¹ s⁻¹
13.8	0.0366	2.66e+06	11.7	0.0464	3.96e+06	12.9	0.0497	3.88e+06	2	0.0042	2.1e+06	16	2	0.0043	2.2e+06	16	15	13.2	0.0661	XT-M4-V14 (antibody, from a related filing, V domains shown) VH: EVQLVESGGGLVQPGGSLRLSCAASGFTFNNYWMTWVRQAPGKGLEWVASIDNSGDNTYYPDSVKDRFTISRDNAKNSLYLQMNSLRAEDTAVYYCARGGDITTGFDYWGQGTLVTVSS VL: DIQMTQSPSSLSASVGDRVTITCRASQDVGIYVNWFQQKPGKAPKRLIYRATNLADGVPSRFSGSRSGTDFTLTISSLQPEDFATYYCLEFDEHPLTFGGGTKVEIK	kon [9]: 5.02e+06 M⁻¹ s⁻¹; Kd [10]: 1.9 nM; koff [10]: 0.004 s⁻¹; kon [10]: 2.1e+06 M⁻¹ s⁻¹; Kd [11]: 16 nM; Kd [12]: 2 nM; koff [12]: 0.0041 s⁻¹; kon [12]: 2.1e+06 M⁻¹ s⁻¹
